Laboratory results reported in publication PMC4383324.
pKd: −log10 of the molar value.

What was measured:
[1] = target: MyrNCS-1 His6 (N-terminally myristoylated NCS-1 with a carboxyl terminal His6-tag) (UniProt P62166); test: AUC
[2] = target: MyrNCS-1 His6 (N-terminally myristoylated NCS-1 with a carboxyl terminal His6-tag) (UniProt P62166); test: micro-batch multi-angle laser light scattering
[3] = target: MyrNCS-1 His6 (N-terminally myristoylated NCS-1 with a carboxyl terminal His6-tag) (UniProt P62166); test: SEC-MALS

Substance: MyrNCS-1 His6 (N-terminally myristoylated NCS-1 with a carboxyl terminal His6-tag) (from UniProt P62166 1-190) (natural protein)
- pKd [1]: 5.70
- pKd [2]: 5.00
- stoichiometry N [3]: 2
